# In the supplement of paper PMC9112550, “Optimization of the antimicrobial peptide Bac7 by deep mutational scanning” (BMC Biology, 2022):
# Test system: Escherichia coli TOP10
# Test: shrunken log2 fold change of peptide-encoding DNA abundance (4.5 h post-induction vs induction); higher = less antimicrobial activity (less host growth inhibition)
# Conditions: time post-induction: 4.5 h; library: site-saturation at positions 5, 18, 19, 20
# 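Note: peptides expressed intracellularly from a pBAD plasmid library in pooled LB shake-flask culture, induced with 0.3% L-arabinose, DNA abundance read by NGS, three biological replicates, DESeq2 with apeglm shrinkage.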
row,Sequence,shrunken log2 fold change
1,RRIRFRPPRLPRPRPRPMTYPRP,-0.0939
2,RRIRFRPPRLPRPRPRPMVMPRP,-0.696
3,RRIRFRPPRLPRPRPRPMVVPRP,-0.0152
4,RRIRFRPPRLPRPRPRPMYLPRP,-0.376
5,RRIRFRPPRLPRPRPRPNAAPRP,0.419
6,RRIRFRPPRLPRPRPRPNAKPRP,-0.00228
7,RRIRFRPPRLPRPRPRPNDLPRP,0.00528
8,RRIRFRPPRLPRPRPRPNECPRP,-0.00063
9,RRIRFRPPRLPRPRPRPNFCPRP,0.0651
10,RRIRFRPPRLPRPRPRPNFQPRP,-0.272
11,RRIRFRPPRLPRPRPRPNGWPRP,0.0579
12,RRIRFRPPRLPRPRPRPNHLPRP,-1.06
13,RRIRFRPPRLPRPRPRPNIQPRP,-0.973
14,RRIRFRPPRLPRPRPRPNISPRP,-0.503
15,RRIRFRPPRLPRPRPRPNKHPRP,-0.348
16,RRIRFRPPRLPRPRPRPNLEPRP,-0.257
17,RRIRFRPPRLPRPRPRPNLHPRP,-0.235
18,RRIRFRPPRLPRPRPRPNMLPRP,-0.669
19,RRIRFRPPRLPRPRPRPNNGPRP,-0.151
20,RRIRFRPPRLPRPRPRPNPEPRP,-0.197
21,RRIRFRPPRLPRPRPRPNSQPRP,-0.496
22,RRIRFRPPRLPRPRPRPNVDPRP,-0.0445
23,RRIRFRPPRLPRPRPRPNVSPRP,-0.0196
24,RRIRFRPPRLPRPRPRPNVWPRP,0.0725
25,RRIRFRPPRLPRPRPRPNWFPRP,0.0383

row,Sequence,shrunken log2 fold change
1,RRIRFRPPRLPRPRPRPNWQPRP,0.0965
2,RRIRFRPPRLPRPRPRPPAAPRP,1.32
3,RRIRFRPPRLPRPRPRPPASPRP,0.574
4,RRIRFRPPRLPRPRPRPPCQPRP,3.46
5,RRIRFRPPRLPRPRPRPPDQPRP,0.63
6,RRIRFRPPRLPRPRPRPPEEPRP,0.153
7,RRIRFRPPRLPRPRPRPPFGPRP,-0.00994
8,RRIRFRPPRLPRPRPRPPHFPRP,0.341
9,RRIRFRPPRLPRPRPRPPIWPRP,0.317
10,RRIRFRPPRLPRPRPRPPKAPRP,0.332
11,RRIRFRPPRLPRPRPRPPLFPRP,0.273
12,RRIRFRPPRLPRPRPRPPNIPRP,-0.185
13,RRIRFRPPRLPRPRPRPPPHPRP,1.37
14,RRIRFRPPRLPRPRPRPPPYPRP,0.445
15,RRIRFRPPRLPRPRPRPPQAPRP,0.558
16,RRIRFRPPRLPRPRPRPPQDPRP,0.303
17,RRIRFRPPRLPRPRPRPPQQPRP,-0.0751
18,RRIRFRPPRLPRPRPRPPVKPRP,-0.00563
19,RRIRFRPPRLPRPRPRPPVSPRP,0.0761
20,RRIRFRPPRLPRPRPRPPWSPRP,0.204
21,RRIRFRPPRLPRPRPRPPYSPRP,-0.235
22,RRIRFRPPRLPRPRPRPQACPRP,-0.0456
23,RRIRFRPPRLPRPRPRPQCDPRP,-0.388
24,RRIRFRPPRLPRPRPRPQCHPRP,-0.358
25,RRIRFRPPRLPRPRPRPQCMPRP,0.000372

row,Sequence,shrunken log2 fold change
1,RRIRFRPPRLPRPRPRPQEQPRP,-0.0102
2,RRIRFRPPRLPRPRPRPQEVPRP,0.0758
3,RRIRFRPPRLPRPRPRPQEWPRP,-0.149
4,RRIRFRPPRLPRPRPRPQFDPRP,-0.286
5,RRIRFRPPRLPRPRPRPQGIPRP,0.0254
6,RRIRFRPPRLPRPRPRPQHMPRP,-0.615
7,RRIRFRPPRLPRPRPRPQILPRP,-0.713
8,RRIRFRPPRLPRPRPRPQKFPRP,-0.259
9,RRIRFRPPRLPRPRPRPQKGPRP,0.107
10,RRIRFRPPRLPRPRPRPQKSPRP,-0.285
11,RRIRFRPPRLPRPRPRPQKYPRP,-0.864
12,RRIRFRPPRLPRPRPRPQLMPRP,-0.32
13,RRIRFRPPRLPRPRPRPQMGPRP,-0.209
14,RRIRFRPPRLPRPRPRPQMIPRP,-0.484
15,RRIRFRPPRLPRPRPRPQMKPRP,-0.41
16,RRIRFRPPRLPRPRPRPQNSPRP,-0.568
17,RRIRFRPPRLPRPRPRPQPRPRP,0.541
18,RRIRFRPPRLPRPRPRPQRNPRP,-0.323
19,RRIRFRPPRLPRPRPRPQRWPRP,0.427
20,RRIRFRPPRLPRPRPRPQSAPRP,0.0283
21,RRIRFRPPRLPRPRPRPQSSPRP,0.0748
22,RRIRFRPPRLPRPRPRPQTAPRP,-0.337
23,RRIRFRPPRLPRPRPRPQTLPRP,-0.399
24,RRIRFRPPRLPRPRPRPQVCPRP,-0.00807
25,RRIRFRPPRLPRPRPRPRADPRP,0.223
